Results taken from patent US8287851B2, “Use of interleukin 17E for the treatment of cancer” (Lorus Therapeutics Inc., priority 2005, dated 2012).

B1: murine IL-17E: Murine IL-17E from R&D Systems; predominant form starting at Val 17 of GenBank NP 542767 (protein)
chain: VSLRIQEGCSHLPSCCPSKEQEPPEEWLKWSSASVSPPEPLSHTHHAESCRASKDGPLNSRAISPWSYELDRDLNRVPQDLYHARCLCPHCVSLQTGSHMDPLGNSVPLYHNQTVFYRRPCHGEEGTHRRYCLERRLYRVSLACVCVRPRVMA
B2: human IL-17E: Recombinant human IL-17E from PeproTech; two 145 amino acid chains, predominant form starting at Tyr 33 of GenBank AAG40848 (protein, listed as Homo sapiens)
chain: YSHWPSCCPSKGQDTSEELLRWSTVPVPPLEPARPNRHPESCRASEDGPLNSRAISPWRYELDRDLNRLPQDLYHARCLCPHCVSLQTGSHMDPRGNSELLYHNQTVFYRRPCHGEKGTHKGYCLERRLYRVSLACVCVRPRVMG

Tests used:
[1] = test system: human melanoma C8161 xenograft; assay: Antitumour activity in murine xenograft model of human melanoma C8161; format: in vivo, CD-1 athymic nude mice
Description: Human melanoma cell line C8161 was grown in RPMI 1640 medium (Wisent Inc., St. Bruno, QC) with 10% fetal bovine serum, penicillin (100 U/ml), streptomycin ([…]) (Wisent Inc.) at 37° C. under 95% air and 5% CO2, and maintained with routine media changes. Adherent C8161 cells were passaged by trypsinization with 0.025% trypsin. CD-1 athymic nude mice and C57BL/6 (6-8 weeks old, 20-25 g, female) were purchased from Charles River (Montreal, QC).
Human tumour xenografts were established in mice. Briefly, human tumour cells were harvested at approximately 80% confluence in cell culture medium and resuspended in sterile PBS. Ten million tumour cells in 100 μl were subcutaneously implanted into the right flank of CD-1 athymic nude mice. When tumours reached a volume of 50-100 mm^3, mice were randomly separated into two groups of 10 animals and treated with BD-BRM until the endpoint of the experiment. Anti-tumour activity was evaluated and tumour volume was estimated by caliper measurements, using the formula: Length×Width×Height×/2. Tumour weight was determined from tumour tissue surgically excised from the animal on the last day of the experiment. The percentage of inhibition (%)=(mean tumour weight of control animals−mean tumour weight of drug-treated group)/mean tumour weight of controls×100. A p value of ≦0.05 was considered to be statistically significant.
Mice bearing human melanoma C8161 xenograft were treated intraperitoneally with BD-BRM or PBS for 4 weeks. Briefly, human melanoma C8161 cells were subcutaneously injected into the right flank of CD-1 nude mice as described above. The mice were then administered i.p. with 0.2 ml of PBS or BD-BRM daily when tumours reached a volume of 50-100 mm^3.
Recombinant human IL-17E was obtained from PeproTech, Inc., and is present in the preparation as a 33.8 kDA disulphide linked homodimer of two 145 amino acid polypeptide chains. The predominant form of IL-17E in this preparation is the form starting at Tyr 33 of the human sequence provided by GenBank Accession No. AAG40848. Human melanoma C8161 cells (10^6 cells in 100 μl PBS) were subcutaneously implanted into the right flank of CD-1 athymic nude mice. When tumours reached a volume of 50-100 mm^3, mice were randomly separated into two groups of 10 animals and treated as follows:
Group I: 100 μl of PBS intraperitoneally (i.p.) per mouse every other day until the endpoint of the experiment; and
Group II: 0.04 mg/kg of recombinant human IL-17E intraperitoneally (i.p.) every other day until the endpoint of the experiment.
The size of the tumours was measured by caliper measurements throughout the experiment. Tumour volume was determined using the formula (Length×Width×Height/2). T-tests were performed to assess the statistical significance of differences in tumour sizes. A p value of ≦0.05 was considered to be statistically significant.
The effect of human IL-17E dosage on antitumour efficacy was examined using a murine xenograft model of human melanoma tumour growth. Human melanoma C8161 cells (10^6 cells in 100 μl PBS) were subcutaneously implanted into the right flank of CD-1 athymic nude mice. When tumours reached a volume of 50-100 mm^3, mice were randomly separated into four groups of 10 animals and treated as follows:
Group I: 100 μl of PBS subcutaneously (s.c.) per mouse every other day until the endpoint of the experiment; […]

[2] = test system: eosinophils (CCR3+) in spleen; assay: Eosinophils (CCR3+) in spleen of C8161 tumour xenografted mice; format: in vivo, CD-1 nude mice; settings: C8161-engrafted mice, Example 21
Description: Briefly, single cell suspensions of spleen cells were obtained by meshing and passing through a cell strainer (70 um; Bectin Dickinson) to separate fibrous tissue. Erythrocytes were lysed with ACK (0.155 M ammonium chloride, 0.1 mM disodium EDTA, 0.01 M potassium bicarbonate, pH 7.3) for 5 minutes on ice. The single cell suspensions of spleen cells were then analyzed by flow cytometry for the presence of eosinophils by surface staining with an antibody to CCR3 using the method as described in Example 13.
The effect of interleukin 17E on increased percentage of splenic eosinophils and B cells and the proportion of activated splenic B cells was examined. CD1-nude mice engrafted with C8161 human melanoma cells were treated with either PBS, murine IL-17E, or human IL-17E as described previously. At the endpoint of the experiment, spleens were isolated from treated mice, stained with markers specific for eosinophils (CCR3+), B cells (either IgM+ or CD19+), and B cell activation (CD-80+, CD86+), and examined by flow cytometry. […]
The percentage of eosinophils was determined by surface staining the granulocyte-gated population with phycoerythrin (PE)-conjugated anti-mouse CCR3. […] The proportion of activated splenic B cells was determined by staining with FITC-conjugated anti-mouse IgM together with PE-conjugated anti-mouse CD80 and PE-conjugated anti-mouse CD86. […]

[3] = test system: protein tyrosine kinase Lyn; assay: Lyn phosphorylation in B cell lymphoma cell line WEHI-231 (Western blot); format: cell-based; settings: 0.21 μg per 1.5×10^6 WEHI-231 cells, 0, 2, 5 minutes
Text: The effect of IL-17E on activation of signaling pathways in B cells was examined using the B cell lymphoma cell line WEHI-231 (Lanier L. L., et al. (1981) J. Immunol. 126:626-31). Specifically, the activation status of the protein tyrosine kinase Lyn and the B cell linker protein BLNK (Tsubata, T., et al., (2001) Int Rev Immunol 20:675-8) were examined. An increased level of the phosphorylated forms of these proteins is indicative of activation.
A total of 1.5×10^6 cells per sample were stimulated in vitro with 0.21 μg of either human IL-17E or murine IL17E at 37° C. Cells were lysed at time points t=0, 2, and 5 minutes in lysis buffer for 30 minutes on ice, followed by centrifugation for 10 minutes. Samples containing approximately 25 μg of protein were separated by SDS-PAGE, followed by transfer to membranes for Western blotting.
For detection of Lyn, Western blots were incubated with rabbit anti-Lyn antibodies, followed by horseradish peroxidase (HRP)-conjugated anti-rabbit antibodies. All blots were exposed to autoradiography film and developed to detect proteins of interest by chemiluminescence.
To assess equivalence in protein loading among lanes in both experiments, blots were stripped of antibodies and incubated with mouse anti-GAPDH antibodies and HRP-conjugated anti-mouse antibodies, followed by chemiluminescence-based detection.

Molecule | antitumour efficacy, comparison of i.p. and i.v. routes of administration ([1]; 0.04 mg/kg murine IL-17E every other day) | tumour growth (tumour weight) vs PBS ([1]; 0.04 mg/kg murine IL-17E intraperitoneally every other day) | tumour growth (tumour weight) vs PBS ([1]; 0.04 mg/kg murine IL-17E intravenously every other day) | percentage of splenic eosinophils (CCR3+, granulocyte-gated) as compared to PBS [2] | levels of phosphorylated Lyn protein [3] | tumour growth (tumour volume) as compared to PBS ([1]; 0.04 mg/kg recombinant human IL-17E i.p. every other day) | antitumour effect with increasing doses ([1]; 0.0018, 0.016, 0.144 mg/kg s.c. every other day)
B1 | approximately equivalent antitumour efficacy | inhibit tumour growth | inhibit tumour growth | significantly increased | increased | – | –
B2 | – | – | – | significantly increased | increased | significantly inhibit tumour growth | dose-response effect
